Results: patent publication US20210052695A1 (CAMBRIDGE ENTERPRISE, published 2021)
Ends that are not written are not given here. * marks the point of attachment. TAMRA = 5-carboxytetramethylrhodamine, CN(C)c1ccc2c(-c3ccc(C(=O)*)cc3C(=O)[O-])c3ccc(N(C)C)cc3[o+]c2c1

Experiments:
[1] = biological target: T1, HLA-A*68:02 expressed on the cell surface (HeLaM cells, or HeLaM-HLA-ABC^KO cells reconstituted with … (human)); experiment: flow cytometry, dose response of fluorescent peptide on HeLaM cell lines (FIG. 1d)
T1 construct: whole, on cells; Carries the cells' own, unnamed peptides before exchange; also called HLA-A*A68:02
Protocol: (§1) Target cell lines were seeded at 25,000-30,000 cells/well in 12-well plates and stimulated with IFN-γ. Following the stimulation period, the cells were washed 3 times with 1×PBS and incubated with 300 μL pre-warmed opti-MEM (Thermo Fisher Scientific, UK). […] After 15 min, the desired TAMRA-labelled peptide was added to the cells and incubated at 37° C. (15 min for HLA-A*68:02 or 60 min for HLA-A*02:01). […] Following the peptide treatment, the cells were washed three times in 1×PBS and harvested. The level of bound peptide/cell was determined by flow cytometry, using the YelFL1 channel (Cytek).

[2] = biological target: T1, HLA-A*68:02 expressed on the cell …; experiment: flow cytometry of fluorescent peptide on transduced HeLaM-TAPBPR^KO cells
[3] = biological target: T1, HLA-A*68:02 expressed on the cell …; experiment: flow cytometry, time course with 10 nM fluorescent peptide (FIG. 1e)
Protocol: as §1

[4] = biological target: T1, HLA-A*68:02 expressed on the cell …; experiment: cell-based peptide exchange on HeLa^KOTAPBPR^WT cells, displacement of fluorescent peptide, flow cytometry
Protocol: (§2) Cells were incubated with 10 nM fluorescent peptide for 15 min at 37° C., washed, then subsequently incubated with increasing concentrations of unlabeled competitor peptide for 15 min at 37° C.
(§3) First, cells were incubated with 10 nM fluorescently-labelled peptide for 15 min at 37° C. to allow surface MHC class I molecules to bind to labelled peptides. The, after extensive washing to remove any unbound fluorescent peptide, the ability of the cells to exchange the labelled peptide was assessed by incubating the cell with various unlabeled competitor peptides for 15 min at 37° C.

[5] = biological target: T2, UDP-glucose:glycoprotein glucosyltransferase 1 (UGT1) (UniProt Q9NYU2 43-1555); experiment: immunoprecipitation of the intracellular TAPBPR pool, Western blot for UGT1
T2 construct: Detected by Western blot in TAPBPR immunoprecipitates
Protocol: Nuclei and cell debris were pelleted by centrifugation at 13,000×g for 15 min and supernatants were collected. Immunoprecipitation was performed with Pete4 antibody coupled to protein A sepharose (GE Healthcare) for 2 h at 4° C. with rotation. Following immunoprecipitation, beads were washed thoroughly in 0.1% detergent-TBS to remove unbound protein. […] In order to analyse the samples by western blotting, proteins were transferred onto an Immobilon transfer membrane (Merck Millipore). Membranes were blocked using 5% (w/v) dried milk and 0.1% (v/v) Tween 20 in PBS for 30 min and subsequently incubated with the indicated primary antibody for 1-16 h. After washing, membranes were incubated with species-specific HRP-conjugated secondary antibodies, washed and detected by enhanced chemiluminescence using Western Lightning (Perkin Elmer, UK) and Super RX film (Fujifilm, UK). Films were scanned on a CanoScan8800F using MX Navigator Software (Canon, UK).

[6] = biological target: T1, HLA-A*68:02 expressed on the cell …; experiment: flow cytometry of TAPBPR on HeLaM cells without surface GFP
[7] = biological target: T1, HLA-A*68:02 expressed on the cell …; experiment: flow cytometry with PeTe-4 on HeLaM, HeLaM-HLA-ABC^KO and HLA-A*68:02 reconstituted cells, 100 nM protein, 15 min at 37° C.
Description: Line graphs show MFI−/+s.e.m from three independent experiments. […] (i) Bar graphs showing the MFI of fluorescent peptide binding to HeLaM HLA-ABC^KO+A2−/+s.e.m from two independent experiments with duplicates. ***P≤0.001, ****P≤0.0001, n/s not significant, using unpaired two-tailed t-test.

[8] = biological target: T1, HLA-A*68:02 expressed on the cell …; experiment: flow cytometry of fluorescent peptide on IFN-γ treated HeLaM cell lines, 15 min at 37° C.
Protocol: as §1

[9] = biological target: T1, HLA-A*68:02 expressed on the cell …; experiment: cell-based peptide exchange: no dissociation of fluorescent peptide from HLA-A*68:02 on HeLa^KOTAPBPR^WT cells
Protocol: as §2, §3

T2 sequence (Q9NYU2 43-1555 limits assumed): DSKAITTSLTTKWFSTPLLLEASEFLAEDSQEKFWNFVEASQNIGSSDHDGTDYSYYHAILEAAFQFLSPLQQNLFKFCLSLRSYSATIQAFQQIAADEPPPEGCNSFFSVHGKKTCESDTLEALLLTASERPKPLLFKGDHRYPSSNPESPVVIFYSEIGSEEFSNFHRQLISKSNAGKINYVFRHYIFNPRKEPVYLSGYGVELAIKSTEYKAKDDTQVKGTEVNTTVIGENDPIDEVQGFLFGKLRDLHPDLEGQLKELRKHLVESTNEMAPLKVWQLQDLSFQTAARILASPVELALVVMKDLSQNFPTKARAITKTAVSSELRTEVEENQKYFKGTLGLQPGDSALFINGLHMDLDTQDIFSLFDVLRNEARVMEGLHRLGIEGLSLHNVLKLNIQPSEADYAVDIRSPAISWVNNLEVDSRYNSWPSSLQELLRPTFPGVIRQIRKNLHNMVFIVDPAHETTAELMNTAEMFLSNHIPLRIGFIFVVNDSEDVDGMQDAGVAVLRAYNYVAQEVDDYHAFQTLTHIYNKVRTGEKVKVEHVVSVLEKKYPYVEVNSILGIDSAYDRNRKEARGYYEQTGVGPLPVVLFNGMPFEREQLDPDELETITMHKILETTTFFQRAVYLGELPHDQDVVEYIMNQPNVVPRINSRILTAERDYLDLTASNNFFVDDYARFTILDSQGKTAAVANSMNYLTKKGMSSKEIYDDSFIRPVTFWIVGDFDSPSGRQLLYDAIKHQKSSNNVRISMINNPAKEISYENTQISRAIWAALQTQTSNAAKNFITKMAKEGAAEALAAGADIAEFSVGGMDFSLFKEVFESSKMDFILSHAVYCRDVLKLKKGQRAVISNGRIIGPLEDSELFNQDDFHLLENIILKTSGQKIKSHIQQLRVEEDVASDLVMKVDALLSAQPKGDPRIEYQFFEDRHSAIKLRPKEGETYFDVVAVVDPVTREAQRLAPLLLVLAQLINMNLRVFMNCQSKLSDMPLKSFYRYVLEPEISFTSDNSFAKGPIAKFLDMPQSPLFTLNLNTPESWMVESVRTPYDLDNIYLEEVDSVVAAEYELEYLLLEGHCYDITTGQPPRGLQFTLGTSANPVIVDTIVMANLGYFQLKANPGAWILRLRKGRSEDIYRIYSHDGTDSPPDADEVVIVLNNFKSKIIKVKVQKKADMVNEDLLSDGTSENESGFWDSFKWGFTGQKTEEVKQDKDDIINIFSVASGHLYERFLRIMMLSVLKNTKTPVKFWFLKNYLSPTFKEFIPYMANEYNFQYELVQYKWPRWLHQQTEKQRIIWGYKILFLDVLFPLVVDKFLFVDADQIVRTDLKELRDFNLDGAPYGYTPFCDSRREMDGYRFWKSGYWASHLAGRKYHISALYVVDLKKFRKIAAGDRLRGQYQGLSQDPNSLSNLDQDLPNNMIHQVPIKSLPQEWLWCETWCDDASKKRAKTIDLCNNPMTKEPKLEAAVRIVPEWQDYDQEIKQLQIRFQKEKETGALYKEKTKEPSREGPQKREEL

ETVSK(TAMRA)QSNV [ETVSK*QSNV (fluorescent variant of the neoantigen …)]
fold less efficient peptide binding to cells lacking surface TAPBPR than TAPBPR-promoted binding [1]: ~120 times
fold less exogenous peptide binding on tapasin^PM cells than on TAPBPR^PM cells [2]: ~10 times
fold increase in fluorescent peptide bound to HeLaKO-TAPBPR^WT against the HeLaM and HeLaM^KO controls after 60 min [3]: 21 fold

ETVSEQSNV [ETVSEQSNV (unlabeled HLA-A*68:02-binding peptide)]
binding result [4]: binds

B1: full-length TAPBPR^WT over-expressed in HeLaM-TAPBPR^KO cells (other)
chain: KPHPAEGQWRAVDVVLDCFLVKDGAHRGALASSEDRARASLVLKQVPVLDDGSLEDFTDFQGGTLAQDDPPIIFEASVDLVQIPQAEALLHADCSGKEVTCEISRYFLQMTETTVKTAAWFMANVQVSGGGPSISLVMKTPRVAKNEVLWHPTLNLPLSPQGTVRTAVEFQVMTQTQSLSFLLGSSASLDCGFSMAPGLDLISVEWRLQHKGRGQLVYSWTAGQGQAVRKGATLEPAQLGMARDASLTLPGLTIQDEGTYICQITTSLYRAQQIIQLNIQASPKVRLSLANEALLPTLICDIAGYYPLDVVVTWTREELGGSPAQVSGASFSSLRQSVAGTYSISSSLTAEPGSAGATYTCQVTHISLEEPLGASTQVVPPERRTALGVIFASSLFLLALMFLGLQRRQAPTGLGLLQAERWETTSCADTQSSHLHEDRTARVSQPS
notes: V41_G151_V169 polymorphisms as used in the studies; also called surface TAPBPR; HeLa^KOTAPBPR^WT
binding result [5]: binds

B2: TAPBPR-GFPNB fusion protein (soluble TAPBPR fused to a nanobody specific for GFP, long linker) (other)
chain: KPHPAEGQWRAVDVVLDCFLVKDGAHRGALASSEDRARASLVLKQVPVLDDGSLEDFTDFQGGTLAQDDPPIIFEASVDLVQIPQAEALLHADCSGKEVTCEISRYFLQMTETTVKTAAWFMANVQVSGGGPSISLVMKTPRVAKNEVLWHPTLNLPLSPQGTVRTAVEFQVMTQTQSLSFLLGSSASLDCGFSMAPGLDLISVEWRLQHKGRGQLVYSWTAGQGQAVRKGATLEPAQLGMARDASLTLPGLTIQDEGTYICQITTSLYRAQQIIQLNIQASPKVRLSLANEALLPTLICDIAGYYPLDVVVTWTREELGGSPAQVSGASFSSLRQSVAGTYSISSSLTAEPGSAGATYTCQVTHISLEEPLGASTQVVPPERRHVGGGGSGGGGSGGGGSTSQVQLVESGGALVQPGGSLRLSCAASGFPVNRYSMRWYRQAPGKEREWVAGMSSAGDRSSYEDSVKGRFTISRDDARNTVYLQMNSLKPEDTAVYYCNVNVGFEYWGQGTQVTVSSK
notes: 21 aa leader left out; also called sTAPBPR-linker-GFPNB; sTAPBPR-GFP sdAb
binding result [6]: no binding (tested: 100 nM)

B3: soluble TAPBPR^WT (secreted luminal domain of human TAPBPR, C-terminally His-tagged) (other)
chain: KPHPAEGQWRAVDVVLDCFLVKDGAHRGALASSEDRARASLVLKQVPVLDDGSLEDFTDFQGGTLAQDDPPIIFEASVDLVQIPQAEALLHADCSGKEVTCEISRYFLQMTETTVKTAAWFMANVQVSGGGPSISLVMKTPRVAKNEVLWHPTLNLPLSPQGTVRTAVEFQVMTQTQSLSFLLGSSASLDCGFSMAPGLDLISVEWRLQHKGRGQLVYSWTAGQGQAVRKGATLEPAQLGMARDASLTLPGLTIQDEGTYICQITTSLYRAQQIIQLNIQASPKVRLSLANEALLPTLICDIAGYYPLDVVVTWTREELGGSPAQVSGASFSSLRQSVAGTYSISSSLTAEPGSAGATYTCQVTHISLEEPLGASTQVVPPERR
notes: Made in 293T cells with the PiggyBac system and purified on Ni Sepharose; also called sol WT; exogenous TAPBPR^WT; not shown: C-terminal His tag
binding result [7]: binds

EGVSK(TAMRA)QSNG (also called ETVΔ2/9) [EGVSK*QSNG (fluorescent non-binding variant with the anchor residues mutated)]
binding result [8]: no binding (tested: 10 nM)

EGVSEQSNG (also called ETVΔ2/9)
binding result [9]: no binding

YVVPFVAKV [YVVPFVAKV (unlabeled peptide)]
binding result [4]: binds

YVVPFVAK(TAMRA)V [YVVPFVAK*V (fluorescent variant of YVVPFVAKV)]
fold less exogenous peptide binding on tapasin^PM cells than on TAPBPR^PM cells [2]: ~10 times
